# Measurements: IntAct's records for PubMed 17024180
# B1: Tyrosine-protein kinase JAK2 (Mus musculus), Q62120 (parent)
# chain: MGMACLTMTEMEATSTSPVHQNGDIPGSANSVKQIEPVLQVYLYHSLGQAEGEYLKFPSGEYVAEEICVAASKACGITPVYHNMFALMSETERIWYPPNHVFHIDESTRHDILYRIRFYFPHWYCSGSSRTYRYGVSRGAEAPLLDDFVMSYLFAQWRHDFVHGWIKVPVTHETQEECLGMAVLDMMRIAKEKDQTPLAVYNSVSYKTFLPKCVRAKIQDYHILTRKRIRYRFRRFIQQFSQCKATARNLKLKYLINLETLQSAFYTEQFEVKESARGPSGEEIFATIIITGNGGIQWSRGKHKESETLTEQDVQLYCDFPDIIDVSIKQANQECSNESRIVTVHKQDGKVLEIELSSLKEALSFVSLIDGYYRLTADAHHYLCKEVAPPAVLENIHSNCHGPISMDFAISKLKKAGNQTGLYVLRCSPKDFNKYFLTFAVERENVIEYKHCLITKNENGEYNLSGTKRNFSNLKDLLNCYQMETVRSDSIIFQFTKCCPPKPKDKSNLLVFRTNGISDVQISPTLQRHNNVNQMVFHKIRNEDLIFNESLGQGTFTKIFKGVRREVGDYGQLHKTEVLLKVLDKAHRNYSESFFEAASMMSQLSHKHLVLNYGVCVCGEENILVQEFVKFGSLDTYLKKNKNSINILWKLGVAKQLAWAMHFLEEKSLIHGNVCAKNILLIREEDRRTGNPPFIKLSDPGISITVLPKDILQERIPWVPPECIENPKNLNLATDKWSFGTTLWEICSGGDKPLSALDSQRKLQFYEDKHQLPAPKWTELANLINNCMDYEPDFRPAFRAVIRDLNSLFTPDYELLTENDMLPNMRIGALGFSGAFEDRDPTQFEERHLKFLQQLGKGNFGSVEMCRYDPLQDNTGEVVAVKKLQHSTEEHLRDFEREIEILKSLQHDNIVKYKGVCYSAGRRNLRLIMEYLPYGSLRDYLQKHKERIDHKKLLQYTSQICKGMEYLGTKRYIHRDLATRNILVENENRVKIGDFGLTKVLPQDKEYYKVKEPGESPIFWYAPESLTESKFSVASDVWSFGVVLYELFTYIEKSKSPPVEFMRMIGNDKQGQMIVFHLIELLKSNGRLPRPEGCPDEIYVIMTECWNNNVSQRPSFRDLSLRVDQIRDSIAA
# partner: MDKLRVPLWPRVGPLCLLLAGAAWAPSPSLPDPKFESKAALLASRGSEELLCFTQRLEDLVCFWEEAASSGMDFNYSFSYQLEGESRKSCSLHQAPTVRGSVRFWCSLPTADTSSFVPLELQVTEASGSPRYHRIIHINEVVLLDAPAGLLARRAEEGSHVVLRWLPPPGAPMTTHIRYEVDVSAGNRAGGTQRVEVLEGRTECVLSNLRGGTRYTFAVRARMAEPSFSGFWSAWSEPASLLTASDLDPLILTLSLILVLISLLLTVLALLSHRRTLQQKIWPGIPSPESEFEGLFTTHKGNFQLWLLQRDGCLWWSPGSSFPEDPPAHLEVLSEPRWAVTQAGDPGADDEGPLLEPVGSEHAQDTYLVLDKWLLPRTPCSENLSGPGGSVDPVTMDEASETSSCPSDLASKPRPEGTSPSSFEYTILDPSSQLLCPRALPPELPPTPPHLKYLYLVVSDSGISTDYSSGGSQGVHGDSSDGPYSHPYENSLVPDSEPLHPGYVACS
# B2: Tyrosine-protein kinase JAK2 (Mus musculus), Q62120 (parent)
# chain: B1 chain
# partner: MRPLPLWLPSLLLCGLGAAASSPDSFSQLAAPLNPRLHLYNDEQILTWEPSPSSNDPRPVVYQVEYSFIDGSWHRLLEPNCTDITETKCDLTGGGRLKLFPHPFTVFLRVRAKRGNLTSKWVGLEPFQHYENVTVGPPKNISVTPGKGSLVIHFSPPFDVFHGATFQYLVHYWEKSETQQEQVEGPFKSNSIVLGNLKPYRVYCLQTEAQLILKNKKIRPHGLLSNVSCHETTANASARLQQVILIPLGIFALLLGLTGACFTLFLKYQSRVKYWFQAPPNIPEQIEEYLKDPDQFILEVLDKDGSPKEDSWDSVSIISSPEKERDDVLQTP
# Variants of: B1
# Details: with epor_mouse Epor
row,Variant,effect of a mutation on the interaction
1,Y1007F,decreasing interaction
2,Y119E,disrupting interaction

# Variants of: B2
# Details: with Ifngr2, Q63953
row,Variant,effect of a mutation on the interaction
1,Y1007F,decreasing interaction
2,Y119E,decreasing interaction
